B1: TPR t1 (parent)
chain: GACCAAUCUGCCCUCAGAGCUCGAGAACAUCUUCGGAUGCAGAGGAGGCAGGCUUCGGUGGCGCGAUAGCGCCAACGUCCUCAACCUCCAAUGCAUCCCACCACAUGAUGAUGCCUGAAGAGCCUUGGUUUUUUG

Variants of: B1
Test: polymerase ribozyme fitness, log enrichment relative to wild type (log ratio); higher = more active; in vitro selection for triplet polymerase activity
Procedure, shortened: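 After PCR construction and transcription, each subunit's mutant library from a heterodimeric triplet polymerase ribozyme was annealed with a biotinylated primer, the partner subunit and triplets. Incubation was frozen, at −7 °C, and extended constructs were gel-excised, bound to streptavidin beads and amplified by RT-PCR, in one selection round done in triplicate. Fitness is the logarithm of a genotype's enrichment divided by that of the wild type, from inverse-variance-weighted replicate averages of Illumina-sequenced inputs and outputs. The base of the logarithm is 2, and genotypes needed ≥10 input reads and ≥1 read per output.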

| Variant | polymerase ribozyme fitness (log ratio) |
| --- | --- |
| GACCAAUCAGCCCUCAGAGCUCGAGAACAUCUUCGGAUCCAGAGGAGGCAGGCUUCGGUGCCGCGAUAGCGCCAACGACCUCAACCGCCAAUGCAUCCCACCACAUGAUUAUGCCUGAAGAGCCUUGGUUUUUUG [U9A G39C G61C U78A U87G G110U] | -2 |
| GACCAAUCAGCCCUCAGAGCUCGAGAACAUCUUCGGAUGCAGAGGAUGCAGGCUUCGGUGGCGCGAUAGCGCCAACGUCCUCAACCUCCAAUGCAUGCUACCACAUGAUGAUGCCUGAAUAGCCUUGGUCUUUUG [U9A G47U C97G C99U G120U U130C] | -5.08 |
| GACCAAUCAGCCCUCAGAGCUCGAGAACAUCUUCGGAUGCAGAGGAGGCAGGCUUCGCUGGCGCGAUAGCACCAACGUCCUCAACCUCCAAUGCAUCCCACCACAUGAUGAACCCUGAAGAGCCUUGUUUUUUUG [U9A G58C G71A U112A G113C G128U] | -3 |
| GACCAAUCAGCCCUCAGAGCUCGAGAACAUCUUCGGAUGCAGAGGAGGCAGGCUUCGGUGGCGCGAUAGCGCCAACGUCCUCAACCUCCAAUGCAUCCCACCACAUGAUUAUGCCUGAAGAGCGUUGGUUUUUUG [U9A G110U C124G] | -0.636 |
| GACCAAUCCGCCCUCAGAGCUCGAGAACAUCUUCGGAUGCAGAGGAGGCAGGCUUCGGUGGCGCGAUAGCGCCAACGUCCUCAACCUCCAAUGCAUCCCACCCAAUGAUGAUGCCUGAAGAGCCUUGGUUUUUUG [U9C A103C C104A] | -2.12 |
| GACCAAUCCGCACUCAGAGCUCGAGAACAUCUUCGGAUGCAGAGGAGGCAGGCUUCGGUGGCGCGAUAGCGCCAACGUCCUCAACAUCCAAUGCAUCCCACAAUAUGAUGAUGCCUGAAGAGCAUUGGUUUUUUG [U9C C12A C86A C102A C104U C124A] | -0.301 |
| GACCAAUCAGCCCUCAGAGCUCGAGAACAUCUUCGGAUGCAGAGGAGGCAGGCUUCGGUGGCGCGAUAGCGCCAACGCCCUCAACCUCCAAUGCAACCCACCACAUGAUGAUGCCUGAAGAGCUUUGGUUUUUUG [U9A U78C U96A C124U] | 1.26 |
| GACCAAUCCGCCGUCAGAGCUCGAGAAGAUCUUCGGAUGCAGAGUAGGCAGGCUUCGGUGACGCGAUAGCGCCAACGUCCUCAACCUCCAAUGCAUCCCACCACAUGAUGAUGCCUGAAGAGCCUUGGUUUUUUG [U9C C13G C28G G45U G61A] | -2.49 |
| GACCAAUCCGCCCUCAGAGAUCGAGAACAUCUUCGGAUGCAGAGGAGGCAGGCUUCGGUGGCGCGAUACCGCCAACGUCCUCAACCUCCAAUGCAUCCCAACACAUGAUGAUGCCUGAAGAGCCUUGGUUUUUUG [U9C C20A G69C C101A] | -6.63 |
| GACCAAUCAGCCCUCAGAGCUCGAGAACACCUUCGGAUGCAGAAGAGGCAGGCUUCUGUAGCGCGAUAGCGCCAACGUCCUCAACCUCCAAUGCAUCCCACCACAUGAUGAUGCCUGAAGAGCCUUGGUUUUUUG [U9A U30C G44A G57U G60A] | -4.18 |
| GACCAAUCCGCCCUCAGAGCUCGAGAACAUCUUCGGAUGCAGUGGAGGCAGGCUUCGGUGGCGCGAUAGCGCUAACGUUCUCAACCUCCAAUGCAUCCCACCACAUGAUGGUGCCUGAAGAGCCUUGGUUUUUUG [U9C A43U C73U C79U A111G] | -0.526 |
| GACCAAUCCGCCCUCUGAGCUCGAGAACAUCUUCGGAUGCAGAGGAGGCAGGCUUCGGUGGCGCGAUAGCGGCAACGUCCUCAACCUACAAUGCCUCCCACCACAUGAUGUUGCCUGAAGAGCCUUGGUUUUUUG [U9C A16U C72G C88A A95C A111U] | -6.59 |
| GACCAAUCAGCCCUCAGAGCUCGAGAACAUCUUCGUAUGCAGAGGAGGCAGGCUUCGGUGGCGCGAUAGCGCCAACGUCCUCAACCUCCAAUGCAUCCCACCACAUGAUGAUGCCUGAAUAGCCUUGGUUUUUUG [U9A G36U G120U] | 1.67 |
| GACCAAUCCGUCCUCACAGCUCGAGAACAUCUUCGGAUGCUGAGGAGGCAGGCUUCGGUGGCGCGAUAGCGCCAACGUCCUCAACCUCCAAUGCAUCCCACCACAUGAUGAUGCCUGAAGAGCCUUGGUUUUUUG [U9C C11U G17C A41U] | -4.76 |
| GACCAAUCCGCCCUAAGAGCUCGAGAACAUCUUCGGAUGCAGAUGAGGCAGGCUUCGGUCGCGCGAUAGCGCCAACGUCCUCAACCUCCAUUGCAUCCCACCACAUGAUGAUGCCUGAAGGGCCUUGGUUUUUUG [U9C C15A G44U G60C A91U A121G] | -1.08 |
| GACCAAUCAGCCCUCAGAGCUCGAGAACAUCUACGUAUGCAGAGGAGGCAGGCUUCGGUGGCGCGAUAGCGCCAACGUCCUCAACCUCGAAUGCAUCCCACCACAUGAUGAUGCCUGAAGAGCAUUGGUUUUUUG [U9A U33A G36U C89G C124A] | -5.28 |
| GACCAAUCCGCUCUCAGAGCUCGAGAACAUCUUCGGAUGCAGAGGAGGCAGGCUUCGGUGGCGCGAUAGCGCCAACGUCCACAACCUCAAAUGCAUCCCACCACAUGAUGAUGCCUGAAGAGCCUUGGUUUUUUG [U9C C12U U81A C89A] | -1.67 |
| GACCAAUCCGUCCUCAAAGCUCGAGAACAUCUUCGGAUGCAGAGGAGGCAGGCUUCGGUGGCGCGAUAGCGCCAACGUCCUCAACCUCCAAUGCAUCCCACCACAUGAUGAUGCCUGAAGAGCCUUGGUUUUUUG [U9C C11U G17A] | -3.22 |
| GACCAAUCAGCCCUCAGAGCUCGAGAACAUCUUCGGAUGCAAAGGAGGCAGGCUUCGGUGGCGCGAUAGUGCCAACGUCCUCAACCUCCAAUGCAUCCCACCACAUGAUGAUGCCUGAAGAGCCUUGGAUUUUUG [U9A G42A C70U U129A] | -4.53 |
| GACCAAUCCGCCCUCAGAGCUCGAGACCAUCUUCGGAUGGAGAGGAGGCAGGCUUCGGUGGCGCGAUAGCGACAACGUCCUCAACCUCCAAUGCAUCCCACCACAUGAUGAUGCCUGAAGAGCCUUGGUUUUUUG [U9C A27C C40G C72A] | -3.22 |
| GACCAAUCAGCCCUCAGAGCUCGAGAACAUCUUCGGAUGCAGAGGAGGCAGGCUUCGGUGUCGCGAUAGCGCCAACGUCCUCAACCUCUAAAGCAUCCCACCACAUGAUGAUGCCUGAAGAGCCUUGGAUUUUUG [U9A G61U C89U U92A U129A] | -3.6 |

— the RNAGym collection of RNA variant scans (doi:10.1073/pnas.2313332121)
